In the RNAGym collection of RNA variant scans (doi:10.7554/elife.80360):

B1: Twister Ribozyme (parent)
chain: AACACUGCCAAUGCCGGUCCCAAGCCCGGAUAAAAGUGGAGGGGGCGG

Variants of: B1
Experiment: self-cleavage, relative activity (ratio to wild type); higher = more cleavage; co-transcriptional
Variant AACACUGCCAAUGCCGGUCCCAAGCCCGGAUAAAAGGGGAGGGAGCGG [U37G G44A] has a self-cleavage of 0.703. AACACUGCCAAUGCCGGUCCCAAGCCCGGAUAAAAGGGGAGGGCGCGG [U37G G44C] gave a self-cleavage of 0.669. AACACUGCCAAUGCCGGUCCCAAGCCCGGAUAAAAGGGGAGGGGACGG [U37G G45A] gave a self-cleavage of 0.544. In the case of AACACUGCCAAUGCCGGUCCCAAGCCCGGAUAAAAGGGGAGGGGCCGG [U37G G45C], the self-cleavage is reported as 0.268. For AACACUGCCAAUGCCGGUCCCAAGCCCGGAUAAAAGGGGAGGGGUCGG [U37G G45U], the self-cleavage was 0.47. Work on AACACUGCCAAUGCCGGUCCCAAGCCCGGAUAAAAGGGGAGGGGGCUG [U37G G47U] yielded a self-cleavage of 0.724. In the case of AACACUGCCAAUGCCGGUCCCAAGCCCGGAUAAAAGGGGAGGGGGCGA [U37G G48A], the self-cleavage is reported as 0.844. In the case of AACACUGCCAAUGCCGGUCCCAAGCCCGGAUAAAAGGGGAGGGGGCGC [U37G G48C], the self-cleavage is reported as 0.843. In the case of AACACUGCCAAUGCCGGUCCCAAGCCCGGAUAAAAGUAGCGGGGGCGG [G38A A40C], the self-cleavage is reported as 0.129. In the case of AACACUGCCAAUGCCGGUCCCAAGCCCGGAUAAAAGUAGAGGGGGUGG [G38A C46U], the self-cleavage is reported as 0.877. With AACACUGCCAAUGCCGGUCCCAAGCCCGGAUAAAAGUAAAGGGGGCGG [G38A G39A] the self-cleavage was 0.4. In the case of AACACUGCCAAUGCCGGUCCCAAGCCCGGAUAAAAGUACAGGGGGCGG [G38A G39C], the self-cleavage is reported as 0.175. AACACUGCCAAUGCCGGUCCCAAGCCCGGAUAAAAGUAUAGGGGGCGG [G38A G39U] gave a self-cleavage of 0.142. In the case of AACACUGCCAAUGCCGGUCCCAAGCCCGGAUAAAAGUAGAAGGGGCGG [G38A G41A], the self-cleavage is reported as 0.28. AACACUGCCAAUGCCGGUCCCAAGCCCGGAUAAAAGUAGAGUGGGCGG [G38A G42U] gave a self-cleavage of 0.133. AACACUGCCAAUGCCGGUCCCAAGCCCGGAUAAAAGUAGAGGUGGCGG [G38A G43U] showed a self-cleavage of 0.195. AACACUGCCAAUGCCGGUCCCAAGCCCGGAUAAAAGUAGAGGGCGCGG [G38A G44C] showed a self-cleavage of 0.932. For AACACUGCCAAUGCCGGUCCCAAGCCCGGAUAAAAGUAGAGGGGCCGG [G38A G45C], the self-cleavage was 0.65. Work on AACACUGCCAAUGCCGGUCCCAAGCCCGGAUAAAAGUAGAGGGGUCGG [G38A G45U] yielded a self-cleavage of 0.737. AACACUGCCAAUGCCGGUCCCAAGCCCGGAUAAAAGUAGAGGGGGCAG [G38A G47A] showed a self-cleavage of 0.882. AACACUGCCAAUGCCGGUCCCAAGCCCGGAUAAAAGUAGAGGGGGCGA [G38A G48A] showed a self-cleavage of 0.998. For AACACUGCCAAUGCCGGUCCCAAGCCCGGAUAAAAGUAGAGGGGGCGC [G38A G48C], the self-cleavage was 1.04. AACACUGCCAAUGCCGGUCCCAAGCCCGGAUAAAAGUCGUGGGGGCGG [G38C A40U] gave a self-cleavage of 0.129. AACACUGCCAAUGCCGGUCCCAAGCCCGGAUAAAAGUCGAGGGGGAGG [G38C C46A] showed a self-cleavage of 0.791. Work on AACACUGCCAAUGCCGGUCCCAAGCCCGGAUAAAAGUCGAGGGGGGGG [G38C C46G] yielded a self-cleavage of 0.801. Variant AACACUGCCAAUGCCGGUCCCAAGCCCGGAUAAAAGUCCAGGGGGCGG [G38C G39C] has a self-cleavage of 0.127. AACACUGCCAAUGCCGGUCCCAAGCCCGGAUAAAAGUCUAGGGGGCGG [G38C G39U] gave a self-cleavage of 0.164. For AACACUGCCAAUGCCGGUCCCAAGCCCGGAUAAAAGUCGAGAGGGCGG [G38C G42A], the self-cleavage was 0.229. Work on AACACUGCCAAUGCCGGUCCCAAGCCCGGAUAAAAGUCGAGGGAGCGG [G38C G44A] yielded a self-cleavage of 0.826. In the case of AACACUGCCAAUGCCGGUCCCAAGCCCGGAUAAAAGUCGAGGGCGCGG [G38C G44C], the self-cleavage is reported as 0.853. For AACACUGCCAAUGCCGGUCCCAAGCCCGGAUAAAAGUCGAGGGUGCGG [G38C G44U], the self-cleavage was 1.02. Variant AACACUGCCAAUGCCGGUCCCAAGCCCGGAUAAAAGUCGAGGGGACGG [G38C G45A] has a self-cleavage of 0.736. In the case of AACACUGCCAAUGCCGGUCCCAAGCCCGGAUAAAAGUCGAGGGGGCGU [G38C G48U], the self-cleavage is reported as 1.06. AACACUGCCAAUGCCGGUCCCAAGCCCGGAUAAAAGUUGAGGGGGAGG [G38U C46A] showed a self-cleavage of 0.794. Variant AACACUGCCAAUGCCGGUCCCAAGCCCGGAUAAAAGUUUAGGGGGCGG [G38U G39U] has a self-cleavage of 0.0892. With AACACUGCCAAUGCCGGUCCCAAGCCCGGAUAAAAGUUGAGGGUGCGG [G38U G44U] the self-cleavage was 0.915. For AACACUGCCAAUGCCGGUCCCAAGCCCGGAUAAAAGUUGAGGGGACGG [G38U G45A], the self-cleavage was 0.827. Work on AACACUGCCAAUGCCGGUCCCAAGCCCGGAUAAAAGUUGAGGGGCCGG [G38U G45C] yielded a self-cleavage of 0.407. Variant AACACUGCCAAUGCCGGUCCCAAGCCCGGAUAAAAGUUGAGGGGUCGG [G38U G45U] has a self-cleavage of 0.707. AACACUGCCAAUGCCGGUCCCAAGCCCGGAUAAAAGUUGAGGGGGCCG [G38U G47C] showed a self-cleavage of 0.228. With AACACUGCCAAUGCCGGUCCCAAGCCCGGAUAAAAGUUGAGGGGGCUG [G38U G47U] the self-cleavage was 0.813. AACACUGCCAAUGCCGGUCCCAAGCCCGGAUAAAAGUUGAGGGGGCGC [G38U G48C] showed a self-cleavage of 1.05. Work on AACACUGCCAAUGCCGGUCCCAAGCCCGGAUAAAAGUGAAGGGGGCGG [G39A] yielded a self-cleavage of 0.568. AACACUGCCAAUGCCGGUCCCAAGCCCGGAUAAAAGUGAAGGGGGGGG [G39A C46G] gave a self-cleavage of 0.537. AACACUGCCAAUGCCGGUCCCAAGCCCGGAUAAAAGUGAACGGGGCGG [G39A G41C] showed a self-cleavage of 0.126. AACACUGCCAAUGCCGGUCCCAAGCCCGGAUAAAAGUGAAGAGGGCGG [G39A G42A] gave a self-cleavage of 0.146. AACACUGCCAAUGCCGGUCCCAAGCCCGGAUAAAAGUGAAGUGGGCGG [G39A G42U] gave a self-cleavage of 0.164. For AACACUGCCAAUGCCGGUCCCAAGCCCGGAUAAAAGUGAAGGUGGCGG [G39A G43U], the self-cleavage was 0.134. For AACACUGCCAAUGCCGGUCCCAAGCCCGGAUAAAAGUGAAGGGAGCGG [G39A G44A], the self-cleavage was 0.339. With AACACUGCCAAUGCCGGUCCCAAGCCCGGAUAAAAGUGAAGGGGCCGG [G39A G45C] the self-cleavage was 0.234. Variant AACACUGCCAAUGCCGGUCCCAAGCCCGGAUAAAAGUGAAGGGGUCGG [G39A G45U] has a self-cleavage of 0.231. With AACACUGCCAAUGCCGGUCCCAAGCCCGGAUAAAAGUGAAGGGGGCCG [G39A G47C] the self-cleavage was 0.137. AACACUGCCAAUGCCGGUCCCAAGCCCGGAUAAAAGUGAAGGGGGCUG [G39A G47U] gave a self-cleavage of 0.238. With AACACUGCCAAUGCCGGUCCCAAGCCCGGAUAAAAGUGAAGGGGGCGC [G39A G48C] the self-cleavage was 0.532.
